Assay: soluble on expression in E. coli; label from the status in PepcDB or PDB records

| Sequence | soluble on expression in E. coli |
| --- | --- |
| TQETFPPKYLHYDEETSHQLLCDKCPPGTYLKQHCTAKWKTVCAPCPDHYYTDSWHTSDECLYCSPVCKELQYVKQECNRTHNRVCECKEGRYLEIEFCLKHRSCPPGFGVVQAGTPERNTVCKRCPDGFFSNETSSKAPCRKHTNCSVFGLLLTQKGNATHDNICSGNSESTQKCGIDVTLCEEAFFRFAVPTKFTPNWLSVLVDNLPGTKVNAESVERIKRQHSSQEQTFQLLKLWKHQNKDQDIVKKIIQDIDLCENSVQRHIGHANLTFEQLRSLMESLPGKKVGAEDIEKTIKACKPSDQILKLLSLWRIKNGDQDTLKGLMHALKHSKTYHFPKTVTQSLKKTIRFLHSFTMYKLYQKLFLEMIGNQVQSVKISCL | not soluble |
| MSLDVINKYGTPLKLSYLPKISSQIQKAKQWFGEAITNNNYSGTYTYCYCTKSSHFSFVLNEALKNDIHIETSSAYDIPIVRILFENNKITKATNVICNGYKRPEYTDYICDLINEGFNCTPILDNLDEITAYEKGIETSCNLGIRLATDEEPKFEFYTSRLGFRYNDVVQFYKEKIEPNPKFKLKMLHFFINTGIKDTTYYWSELSRFVHMYCTMKKINPDMDSIDIGGGWPIKTSVHFEYDYKYMADQIVKTIKKVCDEEGVPTPNIFTEFGSFTVGESGAAVYSVLGSKLQNDKEEWYMIDSSFITTLPDVWGLSQKYLLLAVNGWDKPYKKVKLGGITCDSMDYYNSEAHQNLVFMPELDEKEPTYIGFFHTGAYQESLGGYGGIQHCLVPAPKHILIDKDADGNFSYNLFAPEQTKESMLKILGYKAEGHHHHHH | soluble |
| MKKLVHLSDFHYDGLRLSEEMLAEAIAVSNQVQPDLVLLTGDYVTTTPQPIHQLAKRLQKLQSHAGIYAILGNHDLYQKNSKTEITQALTKAGIQVLWNEIAYPLGEELPIVGIVDYYYREFNPQLLFNQLEPTTPRIVLCHNPDTAAMLQGWRVDLQLSGHTHGGLEHHHHHH | not soluble |
| MLYDKWDVIMKKVQDIVEAIPKNGTLSIVQRDLESNGDKFALKNPPQSFNLEHHHHHH | not soluble |
| MSLRTIVFDVDDTLYDQQQPFRNAMTKIFPNVATEDMHELYLRFRHHSDETFPKVLANEWSLDFMRFFRMNETLKDLNYPGISQEEGKIFQQVYEEELDNITMHPEVTKLLDTLQEKEIPMGIITNGPTDHQFKKVKQLNIEKWVPSQNIIISQSTGFQKPEKEIFDLACNQFCMEPEHTLYVGDSYDNDIVGARNGGWHSLWFNHRSRELPSCQPASHLAEVTCFTELCPTVEKLFNLEGHHHHHH | soluble |
| DDEITREPRKVVLHRGSTGLGFNIVGGEDGEGIFISFILAGGPADLSGELRKGDRIISVNSVDLRAASHEQAAAALKNAGQAVTIVAQYRPEEYSRQHA | soluble |
| GLDALFERAVESVAAGLNTEYSKVLEYRPADNKFLLRAGVGWQSGLVGEAAVGAGEESQAGYTLQTEEPVVVEDLRTESRFSGPSLLLDHGVVSGISVIIGTTTEPWGVLGAHTSERRPFTKDDITFVRGVANTLTNAIEREQLEGTLRQAEQRYKTLLENFP | not soluble |
| MIVGMSVSLLRGRTVRRVLSVLVVAGLLGAGVTGCSNDAGAKTENTVDASPTPTNTPTDGDGDSAEEPAQDTPAEPEQRPVPEEPEAMKTGDKAGAIAAATFFVEVIEYSLHSNNPELLEKYSYENCTNCNNLIETIAYRSKNGYESLETSYVINSVGTPSYVGTNHIIWGVPMSITSKEQLNRKESEQIETNKLTIYVTYENGEWDLTSIDPDGGQSTK | not soluble |
| VSIKKSSGLNFDNTAIAINAGKGLEFDTNTSESPDINPIKTKIGSGIDYNENGAMITKLGAGLSFDNSGAITIGNKNDDKLTLWTTPDPSPNCRIHSDNDCKFTLVLTKCGSQVLATVAALAVSGDLSSMTGTVASVSIFLRFDQNGVLMENSSLKKHYWNFRNGNSTNANPYTNAVGFMPNLLAYPKTQSQTAKNNIVSQVYLHGDKTKPMILTITLNGTSESTETSEVSTYSMSFTWSWESGKYTTETFATNSYTFSYIAQE | soluble |
| MAHHHHHHMPGKRKRVQGDDNTESQASAVPQGDGQTRARPESHGDTNQPAATHIRVEEPRQPQWTLESRLEDVLLEGKERITNMRLNDFLRNYFDGRGVEEFNENVYMKYFLISPNEFIKDEVLLSTIKVSPPYQELKKEREEFYMLLEASNKLKKECIITLEQWSNFERKDTVTPLARAQINTAFSRVLREERWEAEERQRRERQEMGIDVSTRIKYAVLKGRVRVNKMKLNDFLTMELDGRGVGSANWNFLLRDFFICSTKYIYDVFLLLKIQASDRYNTMERAVRDEMDMEEDVNRLYKNGVDNLLKWLVAAAEVKANVHEVTKRFLDAAAEEAREPKKSSAPMKLEGCYESVYNASWHHFVEVPDGEGTVMEVREGEPPRSWTYKAVGDTLERNDGVEQSGAPRPRLMVLTSDKGWPYTWRRMDPLVAAM | not soluble |
| MELKQFKIAVLPLRDKLLSYARKLTDDHSDAEDAVQEVMLKLWNLRPKLDEYHSIEALAMTMTHHTCMDILRGKHPDNLSLDSVQAASPVATPERLLEEKDEFSLMRHIISTLPPLQQTILRMKDVEEYETEEIAEITGCSSEAIRSNLSRARKKVRDIYLQTIQQRKRRNEA | not soluble |
| MGSDKIHHHHHHMSVGEAMDTEVRAAAQAVCLAFNENPEAVEPRVQAAIAAAAARINRYPFDAEPRVMRKLAEHFSCPEDNLMLVRGIDECFDRISAEFSSMRFVTAWPGFDGYRARIAVSGLRHFEIGLTDDLLLDPNDLAQVSRDDCVVLANPSNPTGQALSAGELDQLRQRAGKLLIDETYVDYSSFRARGLAYGENELVFRSFSKSYGLAGLRLGALFGPSELIAAMKRKQWFCNVGTLDLHALEAALDNDRAREAHIAKTLAQRRRVADALRGLGYRVASSEANFVLVENAAGERTLRFLRERGIQVKDAGQFGLHHHIRISIGREEDNDRLLAALAEYSDHS | not soluble |
| MSLVLYRKLKKAKSLEEIKNTFKNLTKSISSLVMRGMHFYDLSNILTEIYDYLVVKVIEMEKERFEREWGKLPSFAWVHMGSSARKEQVIATDQDNAIVHEGDGEGLSQFAESVNNALDYVGIPKCRGGYMAMNWCKSVEEWKSVFSEWFIKLTPDNLRFLSVFLDLRVIYGDEKLCKELIEHIKREHTSQSLRYLAYDATIAEPPLGLFGLRMKKEIDLKMNGIYPIVNGVRVLALEHGLIEVTNTRERLEELKEAHVMDADLAESLKETYEFLQDLRLRLQAKEVVEGKKADNVIKVSEIDRIEAFVLKEGFKVIKKFQNFLKGHYSIERGLEGHHHHHH | soluble |
| MYYVGIMSGTSLDGIDAVLVDFSGPSFSLLHTCYIPYDQSLRAALLGLNQAGENELHRAAILSNQLSGWYAQAVGRLLEKSGIDPGEIIAVGCHGQTIRHCPQPENGYSIQLVNGALLAELTGMTVVTDFRSRDIAAGGQGAPLVPAFHHEMFAHRDIHRLIINIGGITNITSLPVSGGVNGFDCGPGNMLMDAWCLKHTGMTYDHNGSWAESGRVINPLLENLLNFPYFSLPPPKSTGREMFSLDWLQPCLRGDEATQDVQSTLLQLTVRTITDSVETYYPAVRELYLCGGGAHNGTLVTRLQQQLPGRRINLTDALGIEADWVEACAFAWLARQSIERAPGNLPAVTGATGSRTLGAIYPA | not soluble |
| TPDIQMTQSPSSLSASVGDRVTITVQASQDIIKHLNWYQQTPGKAPKLLIYEASNLQAGVPSRFSGSGSGTDYTFTISSLQPEDIATYYCQQYQSLPYTFGQGTKLQIT | soluble |
| MLILRKDSKFDRKSIEELKELAEVLYNPVKTIVQIRKADPKYQIGSGLVERIAENIKEENIEIVIVGNILTPSQKYNLAKKFKVEVIDKIELVLRIFYKHARTKEAQLQVRLAELQYELPRAREKVRLAKMGEQPGFGGYGDYEVEKYYQKVKREIATIKRKLEKLREHRRVARKGRAKFDTVGLIGYTNAGKTSLLNALTGENKESKNQVFTTLTTTTRAIKGIKRKILVTDTVGFIDDLPPFMIEAFLSTIEESADSDLILIVVDASDDIEEIKRKLKVNHEILSKINCKAPIITVFNKVDKITKEKKRKILEELDRYIVNPIFVSAKYDINMDLLKEMIIEHLNLSIGTIETDNPRLISYLYENTEIIEDILEDNKHIITFRAKERDVNRILKLHKSAVLEHHHHHH | not soluble |
| MSLDNRFPVCINTMKLTMPKLEVYYPSIGGISDINVQKKMNNTILNLVYQMIEDQGYYKNTETTITGYFEIKNNQRGILSLTLSNYAFSGGAHGMTIMKSLTFNVETGEEYSLSQLFKPGSNYVKVLSELIKVQIRERDIPVIEEFCAIKPNQDFYIADKILVLYFQLYELVPYAYGFPQFPISVYTIQDIINEDGPLGRMLYEGHHHHHH | soluble |
| GFRWASNATFTLNRNKVKRLAGGSTNPVTGELIDMPNMPVGWLGKENVAPRVILTEGGTMTDIYVYNELTKDNNGNIKVDAQTGGLSMHTAETPTKVGNLNANYNLGWTNNFTYKGINLGVVLSARVGGLAYSATQGVLDYYGVSSITANARDNKGVPMNNGKVDTQKYYQTIGTGEGGYGRYYLYSATNVRLQELSLSYTLPKKWLNNVANVTFGLVGRNLWMIYCKAPFDPELSASTSSNYYMNVDYFMQPSMRNIGFNVKVQF | not soluble |
| MGSDKIHHHHHHMNEPHGERISVEIPGLERILRGGFLPGRSYLVSGGPGTGKTTLGLQYLASSADGNGLLISLGESERNLRADALRIGLSLDGTSVIDLSPGADAEPEAAYTLLEPWEAEGVDIRSRIGALLPDGPPERVFIDALSQLRQLMPDAYQFRKQVMGLLEYLNSAGTTVLYTAEQGSSADTDLRYLGDGILELEHRENRRILRVLKFRGSGFSEGEHTLRLGDHGMQVFERLMPGEHRRTYVAEELPCGIGELDRLSGGGITRGTVTIISGPTGVGKTSLGLQYMHEAARRGERSVVYTFEESIGTLRTRCEAIGIPVSDMMAKGSLSIDEVEPLHYSPDEFAWRVRTEVEQQGARMVMLDSLAGFRQSVRGDDITAHAHALCHYLSNMGVTVLLVNEQSAIAGEELRPSEDDINYLADTIVLLRYMELDGGLRKAIGILKKRTGDFEKTLREFQITREGLRVGAPLYGLQGILQGIPSKIATLDATE | not soluble |
| MGSDKIHHHHHHMWFAVLSSNEVRRKPVGVRRLGRDLVFWRDSLGKVYALEDFCVHRRARLSAGKVINDRIQCPFHGFEYDGNGRVRLIPALGKNYKVPDRFRVNSYPVYEKNNIIWLWSGEGEPEKEPKFFDDIDEDFAYAEFRELWNVPFPRAVENQLDVMHLPFVHRTTIGRGNRTLVHGPVVKWIDEDSFIFYVFNEVDRGQRVKRPEELSGEESRVYLEFIFPNLWQNHISEGTRVVAFFVPVDRQKTMIYLRFYVKMTGLKPVDSIIARLSMPLNRIILHQDRRVVETQERDIRKDVLVQGDLPIMEFRKRLYKEKKLIDFLFGGGQ | not soluble |
| GSDLTYAYLVGLFEGDGYFSITKKGKYLTYELGIELSIKDVQLIYKIKKILGIGIVSFRKRNEIEMVALRIRDKNHLKSFILPIFEKYPMFSNKQYDYLRFRNALLSGIISLEDLPDYTRSDEPLNSIESIINTSYFSAWLVGFIEAEGCFSVYKLNKDDDYLIASFDIAQRDGDILISAIRKYLSFTTKVYLDKTNCSKLKVTSVRSVENIIKFLQNAPVKLLGNKKLQYLLWLKQLRKISRYSEKIKIPSNY | soluble |

From the DeepSol protein solubility set
